What was measured:
mass spectrometry = target: the molecule itself; assay: mass spectrometry
SEC = target: the molecule itself; assay: SEC

B1: Sso6206, recombinant, His tag cleaved by TEV protease (natural protein, Sulfolobus solfataricus P2)
chain: GAMAIRRLVLDVLKPIRGTSIVDLAERISKLDGVEGVNISVTDMDVETMGLMIIIEGTSLNFDDIRKMLEEEGCAIHSIDEVVSGNRIIEGKIKDDL
stoichiometry N (mass spectrometry): ≤ 6
stoichiometry N (SEC): > 10 monomers per protomer
